{
  "source": "patent US20120244162A1",
  "about": "(MICROMET, published 2012)",
  "binders": {"B1": {"name": "A2J HLP single-chain antibody (scFv)", "scFv": "EVQLLESGGGLVQPGGSLKLSCAASGFTFNVYAMNWVRQAPGKGLEWVARIRSKYNNYATYYADSVKKRFTISRDDSKNTAYLQMNNLKTEDTAVYYCVRHGNFGNSYLSWWAYWGQGTLVTVSSGGGGSGGGGSGGGGSELVVTQEPSLTVSPGGTVTLTCRSSTGAVTSGYYPNWVQQKPGQAPRGLIGATDMRPSGTPARFSGSLLGGKAALTLSGVQPEDEAEYYCALWYSNRWVFGGGTKLTVLTGDYKDDDDKHHHHHH", "notes": "Crude periplasmic preparation; also called VH-VL-P of A2J"}, "B2": {"name": "MCSP-G4 HLP × E2M HLP (bispecific antibody)", "chain": "QVQLVQSGAEVKRPGASMKVSCKASGYTFTNYYIHWVRQAPGQGLEWMGWINPNSGATNYAQKFQGRVTMTRDTSTSTVYMELSSLRSEDTAVYYCAKSWVSWFASWGQGTLVTVSSGGGGSGGGGSGGGGSELVMTQSPDSLAVSLGERATINCKSSQSVLNSSNNRNYLAWYQQKPGQPPKLLIYWASTRESGVPDRFSGSGSGTDFTLTISGLQAEDVAVYYCQQHYSTPFTFGPGTKVDIKSGGGGSEVQLLESGGGLVQPGGSLKLSCAASGFTFNGYAMNWVRQAPGKGLEWVARIRSKYNNYATYYADSVKERFTISRDDSKNTAYLQMNNLKTEDTAVYYCVRHRNFGNSYLSWFAYWGQGTLVTVSSGGGGSGGGGSGGGGSELVVTQEPSLTVSPGGTVTLTCRSSTGAVTSGYYPNWVQQKPGQAPRGLIGATDMRPSGTPARFSGSLLGGKAALTLSGVQPEDEAEYYCALWYSNRWVFGGGTKLTVLHHHHHH"}, "B3": {"name": "E2M HLP single-chain antibody (scFv)", "scFv": "B1 scFv with V31G, K68E, G102R, W112F", "notes": "Crude periplasmic preparation; also called VH-VL-P of E2M"}, "B4": {"name": "EGFR-21-63 LH × A2J HLP (bispecific antibody)", "chain": "DIVLTQSPASLPVSLGQRATISCRASQSVSSSTYSYIHWYQQKPGQPPKLLITYASNLESGVPARFSGSGSGTDFTLDIHPVEEDDSSTYYCQHSWEIPFTFGSGTKLEIKGGGGSGGGGSGGGGSQVQLQQSGPDLVKPGASVKMSCKASGHTFTDCVIIWVKQRAGQGLEWIGQIYPGTGRSYYNEIFKGKATLTADKSSNTVHIQLSSLTSEDSAVYFCALSTLIHGTWFSYWGQGTLVTVSSGGGGSEVQLLESGGGLVQPGGSLKLSCAASGFTFNVYAMNWVRQAPGKGLEWVARIRSKYNNYATYYADSVKKRFTISRDDSKNTAYLQMNNLKTEDTAVYYCVRHGNFGNSYLSWWAYWGQGTLVTVSSGGGGSGGGGSGGGGSELVVTQEPSLTVSPGGTVTLTCRSSTGAVTSGYYPNWVQQKPGQAPRGLIGATDMRPSGTPARFSGSLLGGKAALTLSGVQPEDEAEYYCALWYSNRWVFGGGTKLTVLHHHHHH", "notes": "Bispecific single chain antibody; also called EGFR LH × A2J HLP"}, "B5": {"name": "EGFR-21-63 LH × E2M HLP (bispecific antibody)", "chain": "B4 chain with V282G, K319E, G353R, W363F", "notes": "Bispecific single chain antibody; also called EGFR LH × E2M HLP"}, "B6": {"name": "A2J HLP chimeric IgG antibody (murine IgG1 and human lambda constant regions) (antibody, V domains shown)", "VH": "EVQLLESGGGLVQPGGSLKLSCAASGFTFNVYAMNWVRQAPGKGLEWVARIRSKYNNYATYYADSVKKRFTISRDDSKNTAYLQMNNLKTEDTAVYYCVRHGNFGNSYLSWWAYWGQGTLVTVSS", "VL": "ELVVTQEPSLTVSPGGTVTLTCRSSTGAVTSGYYPNWVQQKPGQAPRGLIGATDMRPSGTPARFSGSLLGGKAALTLSGVQPEDEAEYYCALWYSNRWVFGGGTKLTVLG", "notes": "also called IgG antibody A2J HLP"}, "B7": {"name": "E2M HLP chimeric IgG antibody (murine IgG1 and human lambda constant regions) (antibody, V domains shown)", "VH": "B6 VH with V31G, K68E, G102R, W112F", "VL": "B6 VL", "notes": "also called IgG antibody E2M HLP"}},
  "key": {"[1]": {"target": "T1, 1-27 CD3-Fc (N-terminal amino acids 1-27 of the mature human CD3 epsilon chain fused to the hinge and Fc … (human))", "T1 construct": "also called 1-27 CD3ε-Fc; human CD3 epsilon (aa 1-27)-Fc fusion protein", "test": "ELISA, periplasmic scFv on captured 1-27 CD3-Fc"}, "[2]": {"target": "T2, macaque CD3 on the macaque T cell line 4119LnPx (macaque, UniProt Q95LI5 22-198)", "T2 construct": "whole, on cells; Native CD3 complex on 4119LnPx cells; also called cynomolgus CD3", "T2 sequence (Q95LI5 22-198)": "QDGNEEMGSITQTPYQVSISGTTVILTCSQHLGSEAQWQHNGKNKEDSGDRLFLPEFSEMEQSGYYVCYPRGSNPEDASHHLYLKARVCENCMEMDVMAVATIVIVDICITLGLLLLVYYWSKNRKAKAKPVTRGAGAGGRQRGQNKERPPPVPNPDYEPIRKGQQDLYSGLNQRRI", "test": "FACS, 4119LnPx"}, "marmoset 1-27 CD3ε-EpCAM": {"target": "T3, marmoset 1-27 CD3ε-EpCAM (Callithrix jacchus CD3 epsilon 1-27, …)", "T3 construct": "On transiently transfected 293-HEK cells; also called 1-27 CD3-EpCAM comprising the marmoset 27 mer", "T3 chain": "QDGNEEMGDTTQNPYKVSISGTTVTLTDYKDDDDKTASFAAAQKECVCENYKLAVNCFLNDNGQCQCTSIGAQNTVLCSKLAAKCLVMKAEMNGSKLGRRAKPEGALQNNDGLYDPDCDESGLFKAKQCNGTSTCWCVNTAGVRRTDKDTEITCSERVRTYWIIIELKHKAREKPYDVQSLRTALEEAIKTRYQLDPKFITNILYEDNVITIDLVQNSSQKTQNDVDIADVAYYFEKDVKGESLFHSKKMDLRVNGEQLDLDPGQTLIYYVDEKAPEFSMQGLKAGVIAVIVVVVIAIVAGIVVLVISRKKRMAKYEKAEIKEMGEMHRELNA", "test": "FACS on transfected 293-HEK cells, periplasmic scFv"}, "[3]": {"target": "T4, squirrel monkey 1-27 CD3ε-EpCAM (Saimiri sciureus CD3 epsilon 1-27, …)", "T4 construct": "also called 1-27 CD3-EpCAM comprising the squirrel monkey 27 mer", "T4 chain": "T3 chain with M7I", "test": "FACS on transfected 293-HEK cells, periplasmic scFv"}, "tamarin 1-27 CD3ε-EpCAM": {"target": "T5, tamarin 1-27 CD3ε-EpCAM (Saguinus oedipus CD3 epsilon 1-27, …)", "T5 construct": "On transiently transfected 293-HEK cells; also called 1-27 CD3-EpCAM comprising the tamarin 27 mer", "T5 chain": "T3 chain", "test": "FACS on transfected 293-HEK cells, periplasmic scFv"}, "human 1-27 CD3ε-EpCAM": {"target": "T6, human 1-27 CD3ε-EpCAM (human CD3 epsilon 1-27, cynomolgus EpCAM)", "T6 construct": "Transmembrane fusion: CD3 epsilon 1-27, Flag tag, mature cynomolgus EpCAM; on transiently transfected 293-HEK cells; also called 1-27 CD3-EpCAM comprising the human 27 mer", "T6 chain": "T3 chain with D9G, T10I, N13T, T25I", "test": "FACS on transfected 293-HEK cells, periplasmic scFv"}, "swine 1-27 CD3ε-EpCAM": {"target": "T7, swine 1-27 CD3ε-EpCAM (Sus scrofa CD3 epsilon 1-27, cynomolgus …)", "T7 construct": "Negative control construct on 293-HEK cells; also called 1-27 CD3-EpCAM comprising the swine 27 mer", "T7 chain": "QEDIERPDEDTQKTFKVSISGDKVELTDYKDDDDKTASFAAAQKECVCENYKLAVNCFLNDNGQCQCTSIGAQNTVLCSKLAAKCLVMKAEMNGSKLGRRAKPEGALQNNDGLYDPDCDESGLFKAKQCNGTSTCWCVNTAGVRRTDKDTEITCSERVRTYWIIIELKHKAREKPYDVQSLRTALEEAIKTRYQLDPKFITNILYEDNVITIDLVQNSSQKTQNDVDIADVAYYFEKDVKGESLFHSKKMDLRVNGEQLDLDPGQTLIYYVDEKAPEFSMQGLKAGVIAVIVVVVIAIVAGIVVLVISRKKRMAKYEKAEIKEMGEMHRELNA", "test": "FACS on transfected 293-HEK cells"}, "[4]": {"target": "T1, 1-27 CD3-Fc (N-terminal amino acids …)", "test": "SPR (Biacore 2000), 1-27 CD3-Fc coupled to CM5 chip, analyte 5 µg/ml"}, "[5]": {"target": "T8, human CD3 epsilon alanine mutant, position 2 (D2A) (human, UniProt P07766 22-207)", "T8 construct": "On transfected EL4 cells", "T8 sequence (P07766 other isoform, or with tags, fused parts or gaps limits assumed, stated change not applied)": "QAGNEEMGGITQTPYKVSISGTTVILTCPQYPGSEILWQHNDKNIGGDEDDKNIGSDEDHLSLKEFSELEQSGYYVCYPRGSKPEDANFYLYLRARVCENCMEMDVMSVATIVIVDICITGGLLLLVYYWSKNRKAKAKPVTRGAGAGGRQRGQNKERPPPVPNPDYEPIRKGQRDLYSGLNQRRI", "test": "alanine scanning, FACS on EL4 transfectants"}, "[6]": {"target": "T9, human CD3 epsilon alanine mutant, position 5 (E5A) (human, UniProt P07766 22-207)", "T9 construct": "On transfected EL4 cells", "T9 sequence (P07766 other isoform, or with tags, fused parts or gaps limits assumed, stated change not applied)": "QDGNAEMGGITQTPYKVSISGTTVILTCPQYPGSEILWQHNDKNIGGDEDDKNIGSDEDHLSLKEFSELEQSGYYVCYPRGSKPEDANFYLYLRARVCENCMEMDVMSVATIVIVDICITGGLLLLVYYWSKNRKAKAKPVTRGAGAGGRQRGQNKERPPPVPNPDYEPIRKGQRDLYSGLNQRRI", "test": "alanine scanning, FACS on EL4 transfectants"}, "[7]": {"target": "T10, human CD3 epsilon alanine mutant, position 1 (Q1A) (human, UniProt P07766 23-207)", "T10 construct": "On transfected EL4 cells; positions count on the mature chain", "T10 sequence (P07766 other isoform, or with tags, fused parts or gaps, stated change not applied)": "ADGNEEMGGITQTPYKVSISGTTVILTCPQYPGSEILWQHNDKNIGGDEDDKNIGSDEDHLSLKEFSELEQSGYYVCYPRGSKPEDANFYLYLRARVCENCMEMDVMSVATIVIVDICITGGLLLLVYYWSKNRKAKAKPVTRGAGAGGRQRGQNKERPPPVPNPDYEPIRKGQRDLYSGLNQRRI", "test": "alanine scanning, FACS on EL4 transfectants"}, "[8]": {"target": "T11, human CD3 epsilon alanine mutant, position 3 (G3A) (human, UniProt P07766 22-207)", "T11 construct": "On transfected EL4 cells", "T11 sequence (P07766 other isoform, or with tags, fused parts or gaps limits assumed, stated change not applied)": "as the sequence (P07766 other isoform, or with tags, fused parts or gaps, stated change not applied) above, with A1Q, G3A counted along it", "test": "alanine scanning, FACS on EL4 transfectants"}},
  "note": "Where a chain is given by its changes, count along the chain named. Numbers in names are those of the source.",
  "data": [
    {"binder": "B1", "values": [
      {"measurement": "binding result", "setting": "[1]", "result": "binds"}
    ]},
    {"binder": "B2", "values": [
      {"measurement": "binding result", "setting": "[2]", "result": "binds"}
    ]},
    {"binder": "B3", "values": [
      {"measurement": "binding result", "setting": "marmoset 1-27 CD3ε-EpCAM", "result": "binds"},
      {"measurement": "binding result", "setting": "[3]", "result": "binds"},
      {"measurement": "binding result", "setting": "tamarin 1-27 CD3ε-EpCAM", "result": "binds"},
      {"measurement": "binding result", "setting": "human 1-27 CD3ε-EpCAM", "result": "binds"},
      {"measurement": "binding result", "setting": "[1]", "result": "binds"},
      {"measurement": "binding result", "setting": "swine 1-27 CD3ε-EpCAM", "result": "no binding"}
    ]},
    {"binder": "B4", "values": [
      {"measurement": "Kd", "setting": "[4]", "result": 0.249, "unit": "µM"}
    ]},
    {"binder": "B5", "values": [
      {"measurement": "Kd", "setting": "[4]", "result": 2.46, "unit": "µM"}
    ]},
    {"binder": "B6", "values": [
      {"measurement": "binding result", "setting": "[5]", "result": "no binding"},
      {"measurement": "binding result", "setting": "[6]", "result": "no binding"},
      {"measurement": "binding result", "setting": "[7]", "result": "no binding"},
      {"measurement": "binding result", "setting": "[8]", "result": "no binding"}
    ]},
    {"binder": "B7", "values": [
      {"measurement": "binding result", "setting": "[5]", "result": "no binding"},
      {"measurement": "binding result", "setting": "[6]", "result": "no binding"},
      {"measurement": "binding result", "setting": "[7]", "result": "no binding"},
      {"measurement": "binding result", "setting": "[8]", "result": "no binding"}
    ]}
  ]
}
